# Source: the DeepSol protein solubility set
# Assay: soluble on expression in E. coli; label from the status in PepcDB or PDB records
row,Sequence,soluble on expression in E. coli
1,GAQRRNEIQVPDLDGYTTLKCDFHMHSVFSDGLVWPTVRVDEAYRDGLDAISLTEHIEYRPHKQDVVSDHNRSFDLCREQAEKLGILLIKGSEITRAMAPGHFNAIFLSDSNPLEQKDYKDAFREAKKQGAFMFWNHPGWDSQQPDTTKWWPEHTALYQEGCMHGIEVANGHLYMPEAIQWCLDKNLTMIGTSDIHQPIQTDYDFEKGEHRTMTFVFAKERSLQGIREALDNRRTAAYFHELLIGREDLLRPFFEKCVKIEEVSRNEQGVTLSITNVTDLVLKLKKTAHDTLLVYFRDMTLKPHTRYTVRIGFKQGIKGGDVNFEVTNFIVAPDKGLKYTISL,soluble
2,ADVPAGVQLADKQTLVRNNGSEVQSLDPHKIEGVPESNVSRDLFEGLLISDVEGHPSPGVAEKWENKDFKVWTFHLRENAKWSDGTPVTAHDFVYSWQRLADPNTASPYASYLQYGHIANIDDIIAGKKPATDLGVKALDDHTFEVTLSEPVPYFYKLLVHPSVSPVPKSAVEKFGDKWTQPANIVTNGAYKLKNWVVNERIVLERNPQYWDNAKTVINQVTYLPISSEVTDVNRYRSGEIDMTYNNMPIELFQKLKKEIPNEVRVDPYLCTYYYEINNQKAPFNDVRVRTALKLALDRDIIVNKVKNQGDLPAYSYTPPYTDGAKLVEPEWFKWSQQKRNEEAKKLLAEAGFTADKPLTFDLLYNTSDLHKKLAIAVASIWKKNLGVNVNLENQEWKTFLDTRHQGTFDVARAGWCADYNEPTSFLNTMLSDSSNNTAHYKSPAFDKLIADTLKVADDTQRSELYAKAEQQLDKDSAIVPVYYYVNARLVKPWVGGYTGKDPLDNIYVKNLYIIKH,soluble
3,MGSDKIHHHHHHTGIWQWSVPVHNFSTHPKNPESRAYLWIPGQCEQVKAILVAQHNMEEISILEDEAFRQRMAELDVAQIWVCPSFNHGFDFTDGAWETLDGLLADLAEESGYKELSTAPLIAIGHSAAASWPYYLAAYKPERTLACISVSGQWPYHRDRWLCPDIWGERNINKIPCLETMGEYESAHTWSNEGLKERKEHPLLPLSMLACPAEGHFAYTPEKAQYIALYIKKAMHYGHVDPTKEGWLMERWKKNEKPSCIPAPVNQFKGDPAQAFWFFDREMIEATLAYQSRYYDMKPQLVSVSQNGKTVSQQNTHLQVHPAFIPQEDGITFQLTPVFLDTVPGESPRLSNWTDLPVGASIGHAGKAPVLQMITGPVVLVDSVTFRIQWNRGTLWTDKKSDIVFSITHPGDEEYKPAVQQAQMIIPVKNTEGQQQYIKFATLPDIKRGTKYVSLSAVSSCGLPVDFYVESGPAYVDGNRLILTAIPPKTTYPVKVTVIAWQYGKNSDPKIKTAEPVKQTFYIR,not soluble
4,DGVGGDPAVALPHRRFEYKYSFKGPHLVQSDGTVPFWAHAGNAIPSSDQIRVAPSLKSQRGSVWTKTKAAFENWEVEVTFRVTGRGRIGADGLAIWYAENQGLEGPVFGSADLWNGVGIFFDSFDNDGKKNNPAIVIIGNNGQIHYDHQNDGASQALASCQRDFRNKPYPVRAKITYYQNTLTVMINNGFTPDKNDYEFCAKVENMIIPAQGHFGISAATGGLADDHDVLSFLTFQLTEPGKEPPTPDKEISEKE,soluble
5,MKIKYFFIPLFSSAILFSACSSIQSDLRNLIKETTGKDFDVSKLIKTSEGRKNLINSLKKSYESKPDETASLLLIAWKQSAEMGEIGFDDIKEGGIYTRDNDPFKLEQKVEYFNMEYKILVMF,soluble
6,MFSILLPTWNNLALLKLCVQSIRAHSAHDHQIIVHVNDGSDGTLAWVREQGLDHTHSPGNVGICLAVNESAMLARHDYIVYLNDDMVCCPGWDTALLRRLDTLDTDLFMLSGTMIEPVDTGNPCVVVGNYGRDADTFDAARLLADVPRLARGDWLGATWPPTLVHRRWWFKLGGYSSELTPGMSSDNDFSMKLWHAGCRIFLGAGDSLVYHFQCKSTGKVKKNDGRRQFLNKWGLSQSTFDKYFLRRGTPAGADWRLPEPELTSALRWDLRRNDLTRRLRPGVPVLLEHHHHHH,soluble
7,MSQTKIEWADKVWNPVSGCTKISEGCQNCYAERMSKRLAGRCGYPAEEPFKVTPHPEKLGEPLKWRKPLRIFVNSMSDLFHADVPDKFIINVLSMIAEASHHTFLILTKRPERMRELLNHDTIANDVWLQTSRGVNAERSPWPLPNLWLGVSAENQAAADERIPILLQTPAAVRFVSVEPMLSEVNLSRYLKRPICKHWGRNGDPNIYGRYFWGKQALVGAGWVGIDWVICGGETGPGARPMHPVWVRDLRDQCRVAGTPFFFKSFGEYVRVGECMNEEDDEEFYSKSSAAGTNVQRLNLQGGMGYHGPKSIYMQRIGKKRAGRELDGRTWEEFPLEHHHHHH,not soluble
8,MTWETVIGLEIHVQLNTKSKIFSGASTAFGAEPNAHASVVECALPGVLPVMNREVVEKAIKLGLALDAKINQKNVFDRKNYFYPDLPKGYQISQLDLPIVEHGKLEIVVGDDVKTINVTRAHMEEDAGKSVHEGLNGATGIDLNRAGTPLLEVVSEPEMRSAAEAVAYAKALHSLVTWLDICDGNMAEGSFRVDANVSVRPKGQEEFGTRREIKNLNSFRFLEQAINYEAEAQIEILEDGGKVQQATMLFDPEKGETRVMRLKEDAHDYRYFPDPDLLPVIISDAQMQKAKAEMPELPKEMAARFVADYGVSEYDARLLTASRAQAAYFEEAAKESGQGKLTANWMNGELAAALNKEGMELADSPITAPRLAALVGKIADGTLSSKLAKKAFEAMWAEPEATIAEIIEKHGLQQMTDTGEIEAMVDEVLANNAKAVEQFKSGNEKALNAIVGQVMKASKGKANPAQVQELIKAKLA,not soluble
9,MEKPVMCKIIDVLDESPTVKTFLLDKEFDFKPGQFAMVWIPEIDEKPFGFSSKNSISIAKVGRFTEKIHSLKKGDLLGIRGPYGNNFEYMGSKILAVAGGIGSAPIISAVEKFSKMDVEVTSIIGGRTKDELLFLDRFEKCGRTFACTDDCSYGFGGFTTEKMLELLSKEKFDMIISCGPEIMMKKVVEIAEKHAIPIQVSLERYMKCGIGICGHCAVDDEGLCICKDGPVFWNDKLKFVSEFGKYKRDASGAIL,not soluble
10,MTKVTREEVEHIANLARLQISPEETEEMANTLESILDFAKQNDSADTEGVEPTYHVLDLQNVLREDKAIKGIPQELALKNAKETEDGQFKVPTIMNEEDALEHHHHHH,not soluble
11,MGSDKIHHHHHHLTYNLLEGSGWMLKIYQVDSFTAVPFGGNPAGVCLLDEEIDERLYPRIASEMNLSETAFVRPGDEKNTYGLRWFTPKVEVKMCGHATLATAWIHFTELGVKGEISYETLSGKLGVRYVDGKIEMNFPSDNPYRVRIDEMLGRITGVEGECYYSSLTEKLLYIISSKSKLENLSFDFSLLETCDFGYTVKGLIVSSPGDEKFDFYSRYFAPWVGIDEDPVTGSAHTVLGPFWSEKLGRKNLRACQLSSRRGELDLELLPNSRILILGKAVTVIRGTISI,not soluble
12,MRGYFIVLEGIDGSGKTTQAKLLAEWFEDKGYEVLLTKEPTDSELGKLIRRIILEESVIDGSKISYEAEALLFAADRAEHVKKIILPALSEGKVVICDRYFYSSLAYQWARGLDLNWLIQVNSFAPRPDLAILLDLPVKESLRRIKLRGTLTEFDKIVELQRKVRHNYLKLAEMFPEMRIVNALSSIEDIHSDIVALVKHELLGL,soluble
13,MDPTETFARMNKVMHQTLKYVKEVESINFSSRGVIDFNGEVMEDHQRIFLSVCTSVFANFSFSCQMDVEKLLSFLMALFENYSKENAYHNALHAADSVQMLFLILREKPATLIFTENEVILAFLATLSLGFVHPGVSNAFLARIDHPLVLVYGDMTTQQSAGLTALLYLLNREENRFIDLFANSGTQPFSQFLREILVETVLGTAPRLRSSLLRDLEKVAVADAVELNDIPILLAAVVILADNALALRPHAQFVNLAGLMVTEWLREAYEEEQRGMDPLVPNLRKQIYENGLGMAVDYCKVWLRPLITNIRALVPQDLYDNMEGNTEAPSMSEIQDFLVHLDSSNERWNDGSVPVIDIIRRITMHATSLDRKASKRAILNAASN,not soluble
14,MHQFTSKQDFCHWFNQFQHPQLVENWADIHGVVTITAQGEVKITLPFASNELQRTLQEWIQQQQAFKAVAAFPYHIELGVKALETQVSNAVKGVKNIIAVSSAKGGVGKSTTAVNLALAIAQSGAKVGLLDADIYGPSVPMMLGQEDAKPEVRDGKWMEPIFAHGIYTHSIGYLVNKSEAAIWRGPMASKALAQLLNETDWPELDYLVIDMPPGTGDIQLTLSQQIPVTGTVLVTTPQDLALADARKGAAMFNKVNVPVVGVVENMSYHICSQCGATEHIFGMGGAEKMSQEFGLALLGQIPLHISMREDIDAGVPTVVRRPDSEHSGYYKQLADRVCSTMFWQGKAKPDAISFTMVNLEHHHHHH,not soluble
15,MGSDKIHHHHHHMWITINRNSNISLSRQIYCEIKDMILDGSLKFEQKLPSSRTLSKELSVSRNTVLDAYNQLIAEGYLETRNGYGTIVAKGISGHKVDFKLNDTFRDEKDLHTNKQKNYIDFRSGVPELKLFPRKELSKLYKQILYDLSDSDFRYGSTAGVWVLRVEISKYLFRTRGIRCNPKNIMIVSGSTQGLSLISQLLYKSNKKVAVEDPIHKGLLKVISSIGYSVVGIKVDDKGMNTNLIKSIKGISFVYTTPSHQYPLGGILPIQRRLELIKCATENDYYIIEDDYDSEFRYEGQPISSLYELSPNKVIYIGSFSKILSPAIRVGFMLLPDNILESYKTLKMYSDVHTETILQHVLAEFIGNGGLEKYIFRMKKLYNRKRKYLIKVLNTEFKNEFKIKGEAAGLHIVAHFYNVKFTESLIHKIFEAGIKVYPIQQYAIENILEYDHEIILGYAHLSFDEIEKGVKILSKIIHMNQGT,not soluble
16,MIPVILSGGSGSRLWPLSRKQYPKQFLALTGDDTLFQQTIKRLAFDGMQAPLLVCNKEHRFIVQEQLEAQNLASQAILLEPFGRNTAPAVAIAAMKLVAEGRDELLLILPADHVIEDQRAFQQALALATNAAEKGEMVLFGIPASRPETGYGYIRASADAQLPEGVSRVQSFVEKPDEARAREFVAAGGYYWNSGMFLFRASRYLEELKKHDADIYDTCLLALERSQHDGDLVNIDAATFECCPDNSIDYAVMEKTSRACVVPLSAGWNDVGSWSSIWDVHAKDANGNVTKGDVLVHDSHNCLVHGNGKLVSVIGLEDIVVVETKDAMMIAHKDRVQDVKHVVKDLDAQGRSETQNHCEVYRPWGSYDSVDMGGRFQVKHITVKPGARLSLQMHHHRAEHWIVVSGTAQVTCDDKTFLLTENQSTYIPIASVHRLANPGKIPLEIIEVQSGSYLGEDDIERLEDVYGRTAEPALQVVAGSR,not soluble
17,MSLEKLAASTEPQGPRPVLGRESVQVPDDQDFRSFRSECEAEVGWNLTYSRAGVSVWVQAVEMDRTLHKIKCRMECCDVPAETLYDVLHDIEYRKKWDSNVIETFDIARLTVNADVGYYSWRCPKPLKNRDVITLRSWLPMGADYIIMNYSVKHPKYPPRKDLVRAVSIQTGYLIQSTGPKSCVITYLAQVDPKGSLPKWVVNKSSQFLAPKAMKKMYKACLKYPEWKEGHHHHHH,not soluble
